{
  "source": "paper PMC4920197",
  "about": "“SMN and coilin negatively regulate dyskerin association with telomerase RNA” (Biology Open, 2016)",
  "binders": {"B1": {"name": "dyskerin (natural protein, human (endogenous in HeLa), UniProt O60832 1-514, looked up)", "chain": "MADAEVIILPKKHKKKKERKSLPEEDVAEIQHAEEFLIKPESKVAKLDTSQWPLLLKNFDKLNVRTTHYTPLACGSNPLKREIGDYIRTGFINLDKPSNPSSHEVVAWIRRILRVEKTGHSGTLDPKVTGCLIVCIERATRLVKSQQSAGKEYVGIVRLHNAIEGGTQLSRALETLTGALFQRPPLIAAVKRQLRVRTIYESKMIEYDPERRLGIFWVSCEAGTYIRTLCVHLGLLLGVGGQMQELRRVRSGVMSEKDHMVTMHDVLDAQWLYDNHKDESYLRRVVYPLEKLLTSHKRLVMKDSAVNAICYGAKIMLPGVLRYEDGIEVNQEIVVITTKGEAICMAIALMTTAVISTCDHGIVAKIKRVIMERDTYPRKWGLGPKASQKKLMIKQGLLDKHGKPTDSTPATWKQEYVDYSESAKKEVVAEVVKAPQVVAEAAKTAKRKRESESESDETPPAAPQLIKKEKKKSKKDKKAKAGLESGAEPGDGDSDTTKKKKKKKKAKEVELVSE", "notes": "dyskerin, endogenous in HeLa cells; also called telomerase and box H/ACA scaRNP core protein dyskerin; source: endogenous, HeLa lysate"}},
  "biological_target": "T1, GFP-tagged SMN E134K (human, UniProt Q16637 1-294, E134K)",
  "T1 construct": "survivor of motor neuron protein (SMN) with the clinically defined SMA patient mutation E134K, made from GFP-SMN; source: HeLa, transfected (FuGENE HD), in lysate",
  "T1 sequence (Q16637 whole entry E134K)": "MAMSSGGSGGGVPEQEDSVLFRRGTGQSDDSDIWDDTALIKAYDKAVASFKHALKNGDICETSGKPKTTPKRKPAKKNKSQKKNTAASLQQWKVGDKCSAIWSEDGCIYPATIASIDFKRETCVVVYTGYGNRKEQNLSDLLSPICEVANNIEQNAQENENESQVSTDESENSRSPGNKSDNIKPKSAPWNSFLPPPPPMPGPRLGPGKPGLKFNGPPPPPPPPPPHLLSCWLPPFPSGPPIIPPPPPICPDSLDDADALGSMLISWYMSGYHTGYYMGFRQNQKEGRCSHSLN",
  "assay": "co-IP; HeLa cells transfected 24 h with GFP vector or GFP-tagged coilin or SMN constructs; lysate in mRIPA buffer immunoprecipitated with anti-GFP antibody; endogenous dyskerin or NAF1 detected by western blot",
  "conditions": "partners not purified",
  "data": [
    {"binder": "B1", "values": [
      {"measurement": "decrease of dyskerin in the SMN complex relative to WT SMN", "value": "~50", "unit": "%"}
    ]}
  ]
}
